Assay results from patent US20110151448A1 (GENEPROTECH, published 2011).
Side chains are listed from the residue outwards. Ends that are not written are not given here. hairpin oligonucleotide = not defined here

T1: RAD51 (UniProt Q08297 1-339, limits assumed)
T1 sequence (looked up): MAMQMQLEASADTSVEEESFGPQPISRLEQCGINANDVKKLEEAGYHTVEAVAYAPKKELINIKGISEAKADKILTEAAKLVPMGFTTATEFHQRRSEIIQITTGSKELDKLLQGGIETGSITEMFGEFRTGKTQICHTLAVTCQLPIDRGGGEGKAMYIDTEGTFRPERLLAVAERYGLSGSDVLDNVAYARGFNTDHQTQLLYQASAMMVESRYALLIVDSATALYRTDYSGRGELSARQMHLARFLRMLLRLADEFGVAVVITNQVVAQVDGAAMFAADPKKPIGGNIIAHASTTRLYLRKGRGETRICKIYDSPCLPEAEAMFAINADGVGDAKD


Assays:
RAD51 [1] = molecular target: T1, RAD51; test: cell-based or functional assay
RAD51 [2] = molecular target: T1, RAD51; test: cell-based or functional assay; remark: listed apart in the source

Fold increase of targeted recombination = ratio of control (HP-HPRT)/ratio of expt. vector (Exp 3, F9 cells) (RAD51 [1]) [fold]	Fold increase of targeted recombination = ratio of control (HP-HPRT)/ratio of expt. vector (Exp 1, F9 cells) (RAD51 [1]) [fold]	Fold increase of targeted recombination = ratio of control (HP-HPRT)/ratio of expt. vector (Exp 2, F9 cells) (RAD51 [1]) [fold]	Fold increase of targeted recombination = ratio of control (HP-HPRT)/ratio of expt. vector (Exp 4, F9 cells) (RAD51 [1]) [fold]	increase in targeted homologous recombination relative to a conventional targeting vector (HPRT, ends not protected) (RAD51 [2]) [fold]	increase of targeted recombination compared with the control vector (HP-HPRT) (RAD51 [2]) [fold]	Fold increase of targeted recombination = ratio of control (HP-HPRT)/ratio of expt. vector (Exp 5, F9 cells) (RAD51 [1]) [fold]	increase in the relative recombination frequency compared to control (HP-HPRT) (RAD51 [2]) [fold]	Binder
1.1	–	–	–	–	–	–	–	BRC5 negative bait peptide (mouse BRCA2 BRC5 repeat with an added C-terminal cysteine), as attached to the targeting vector BRC5-HPRT-NLS (reading uncertain; also: conjugated via oligonucleotide to HPRT targeting DNA) peptide: SSYPVTEDSALAYYTEDSRKTCVRESSLSKGRKWLREQGDKLGTRNTIKIEC([sulfo‑SMCC-hairpin oligonucleotide])
–	2	2.2	2.2	3.5	2.6	–	–	RAD52 bait peptide (mouse RAD52 residues 294-344 with an added C-terminal cysteine), as attached to the targeting vector RAD52-HPRT-NLS (reading uncertain; also: conjugated via oligonucleotide to HPRT targeting DNA) peptide: VAAKHAAVLPAPPKHSTPVTAASELLQEKVVFPDNLEENLEMWDLTPDLEDC([sulfo‑SMCC-hairpin oligonucleotide])
–	–	–	2.2	–	–	2.3	1.5	BRC3 bait peptide (mouse BRCA2 residues 1391-1458 with an added C-terminal cysteine), as attached to the targeting vector BRC3-HPRT-NLS (reading uncertain; also: conjugated via oligonucleotide to HPRT targeting DNA) peptide: ERNIKEFNISFQTASGKNTRVSKESLNKSVNIFNRETDELTVISDSLNSKILHGINKDKMHTSSHKKAC([sulfo‑SMCC-hairpin oligonucleotide])
